Measured values reported in US20030049246A1 (published 2003).

Biological target: T1, Gli3C′ΔXhoI (Myc-tagged C-terminal deleted XhoI Gli 3 truncate) (human, UniProt P10071 1-547)
T1 construct: also called Gli3C'XhoI
T1 sequence: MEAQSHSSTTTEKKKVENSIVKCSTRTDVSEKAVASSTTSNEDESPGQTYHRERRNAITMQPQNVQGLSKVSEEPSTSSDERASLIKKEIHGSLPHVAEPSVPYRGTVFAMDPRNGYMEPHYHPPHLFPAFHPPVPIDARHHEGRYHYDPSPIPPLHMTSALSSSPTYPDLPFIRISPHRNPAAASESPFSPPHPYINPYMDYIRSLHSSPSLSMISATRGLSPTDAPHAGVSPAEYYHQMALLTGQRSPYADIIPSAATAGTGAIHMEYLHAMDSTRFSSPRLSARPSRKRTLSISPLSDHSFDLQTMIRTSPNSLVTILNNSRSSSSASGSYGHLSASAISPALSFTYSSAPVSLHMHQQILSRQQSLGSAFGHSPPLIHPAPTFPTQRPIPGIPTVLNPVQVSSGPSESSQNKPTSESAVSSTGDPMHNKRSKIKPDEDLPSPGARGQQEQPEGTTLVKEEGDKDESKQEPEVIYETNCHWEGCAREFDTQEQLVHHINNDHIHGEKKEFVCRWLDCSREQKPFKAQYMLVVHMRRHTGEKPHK
Experiment: co-immunoprecipitation (anti-Flag IP, anti-Myc blot), transfected cells
Description: Immunoprecipitation and immunoblotting: The assay was performed as previously described ( Liu et al, 1997, Genes Dev. 11:3157-3167). RIB/L17 or COS1 cells were cotransfected with Myc-tagged full-length or deletion derivatives of Gli3 or Gli1 along with a Flag-tagged Smad construct by the DEAE-dextran method. BMP or TGFP stimulation was by cotransfection of an activated BMP or TGFβ receptor and treatment with BMP (2 nM) or TGFβ (500 pM) for 1 hour. Cells were lysed in TNE buffer (10 mM Tris (pH7.8), 150 mM NaCl, 1 mM EDTA, 1% NP40) in the presence of protease inhibitors. Immunoprecipitation was performed by incubation with the M2 anti-Flag antibody (Eastman Kodak) for 1 hour. Immunoprecipitates were separated in an 8% SDS-PAGE and transferred to a PVDF membrane. Inmmunoblotting was carried out by using the 9E10 anti-Myc antibody (ascites), followed by incubation with HRP-conjugated goat anti-mouse antibodies and detected by chemiluminescence (Amersham).

B1: Flag-Smad1 (other, UniProt Q15797 1-465, looked up)
chain: MNVTSLFSFTSPAVKRLLGWKQGDEEEKWAEKAVDALVKKLKKKKGAMEELEKALSCPGQPSNCVTIPRSLDGRLQVSHRKGLPHVIYCRVWRWPDLQSHHELKPLECCEFPFGSKQKEVCINPYHYKRVESPVLPPVLVPRHSEYNPQHSLLAQFRNLGQNEPHMPLNATFPDSFQQPNSHPFPHSPNSSYPNSPGSSSSTYPHSPTSSDPGSPFQMPADTPPPAYLPPEDPMTQDGSQPMDTNMMAPPLPSEINRGDVQAVAYEEPKHWCSIVYYELNNRVGEAFHASSTSVLVDGFTDPSNNKNRFCLGLLSNVNRNSTIENTRRHIGKGVHLYYVGGEVYAECLSDSSIFVQSRNCNYHHGFHPTTVCKIPSGCSLKIFNNQEFAQLLAQSVNHGFETVYELTKMCTIRMSFVKGWGAEYHRQDVTSTPCWIEIHLHGPLQWLDKVLTQMGSPHNPISSVS
notes: not shown: Flag tag
- binding result: no binding
